This note sets out measurements from patent publication US20220363769A1 (SORRISO PHARMACEUTICALS, published 2022).

The term EC50 denotes the concentration that produces a half-maximal response.

T1: recombinant human IL-7Rα-His6-Fc (human, UniProt P16871 21-239)
T1 construct: also called hIL-7R; not shown: His6 tag; Fc (captured by anti-human IgG Fc)
T1 chain: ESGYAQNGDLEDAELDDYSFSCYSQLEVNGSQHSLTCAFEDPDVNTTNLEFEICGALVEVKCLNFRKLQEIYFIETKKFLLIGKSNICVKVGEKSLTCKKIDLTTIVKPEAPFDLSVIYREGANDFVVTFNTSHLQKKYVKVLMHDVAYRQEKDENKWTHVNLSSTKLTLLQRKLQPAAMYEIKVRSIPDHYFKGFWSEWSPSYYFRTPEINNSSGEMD

B1: V7R-2E9 (VHH)
VHH: EVQLVESGGGLVQAGGSLRLSCESSISTFSSDAMGWFRQAPGKEREFLAAIGWSGAVTHYSDSVQGRFTISRDNAKNTVYLQMNSLKSEDTGRYYCAEDYDTDVWQYWGQGTQVTVSS
notes: llama ICVD, primary clone, expressed in E. coli TG1; parent of the ID-A series; not shown: C-terminal FLAG and 6xHis tags from vector pMEK222
B2: ID-A62U (VHH)
VHH: B1 VHH with E1D, R45L, Q65K, K87R, S88A
notes: V7R-2E9 with E1D, R45L, Q65K, K87R, S88A; produced in S. cerevisiae
B3: human IL-7Rα (receptor)
chain: T1 chain
notes: native receptor on human lymphocytes, monocytes and UC biopsy tissue in the cell assays; also called CD127
B4: ID-A59U (VHH)
VHH: B1 VHH with E1D, Q65K, K87R, S88A
notes: V7R-2E9 with E1D, Q65K, K87R, S88A; S. cerevisiae-expressed equivalent of ID-A40U
B5: cynomolgus monkey IL-7Rα (receptor)
chain: T1 chain with N64S, E93G, T159M, K174N, A178E, S215P
notes: also called cynomolgus IL-7Rα

Substitutions are numbered along the chain they refer to. Names and notes keep the numbering of the source. Read-outs that look alike come from different tables or passages of the source.

Assay [1] deals with B3. Briefly: cell-based or functional assay.
The target of assay [2] is B3. Briefly: cell-based or functional assay.
The target of assay [3] is T1, recombinant human IL-7Rα-His6-Fc. Briefly: IL-7/IL-7Rα-His6-Fc ELISA; inhibition of IL-7 binding to IL-7R.
Assay [4] has the same target. Briefly: IL-7/IL-7R neutralising ELISA; inhibition of IL-7 binding to IL-7R. How it is done: (§1) A 7-point dilution series of the clones was prepared in 1% BSA (at 2× the assay concentration) starting at 300 nM and using a 3.2 dilution factor. […] Block buffer alone was also added to each plate as blank. […] TMB reaction was stopped after 30 minutes.
EC₅₀ values were generated in Graphpad prism using the ELISA signal blank corrected A450 data and ‘log(inhibitor) vs. response—Variable slope (four parameters)’ to fit curves and generate EC₅₀.
(An ELISA detects its analyte on a solid surface through an enzyme-linked reagent.)

For assay [5] the target is unchanged. The assay is described as above. On the procedure:
as §1

Assay [6] has the same target. The experiment in a line: IL-7/IL-7R neutralisation ELISA; inhibition of IL-7 binding to IL-7R. How it is done:
A 7-point dilution series of the clones was prepared in 1% BSA (at 2× the assay concentration) starting at 300 nM and using a 3.2 dilution factor. […] Block buffer alone was also added to each plate as blank. […] TMB reaction was stopped after 30 minutes. […]

Assay [7] shares this target. Described as above.
Assay [8] has the same target. Briefly: TSLP/TSLPR/IL-7R ELISA; inhibition of L-TSLP/TSLP-R complex binding to plate-coated IL-7Rα-His6-Fc. On the procedure:
(§2) 96-well plates were coated with 0.25 μg/mL recombinant human IL-7Rα-His₆-Fc+ 5 μg/mL BSA and then blocked. […] Then the mixtures were incubated for 30 minutes to allow binding before adding to the IL-7Rα coated plates.

For assay [9] the target is unchanged. Briefly: IL-7/IL-7R neutralisation ELISA; inhibition of IL-7 binding to IL-7R.
Assay [10] has the same target. Briefly: TSLP/TSLPR/IL-7R ELISA; inhibition of L-TSLP/TSLP-R complex binding to plate-coated IL-7Rα-His6-Fc. How it is done: as §2
A subtraction was performed on the data set before graphing which normalised to the highest concentration of antibody tested (to overcome a high level of background on the plate).

Assay [11] has as its target B5. Briefly: competition ELISA: A62U premixed with serially diluted soluble IL-7R, then added to plate-coated human IL-7Rα-His6-Fc; bound ICVD detected [right panel (cross-reactivity A62U]. On the procedure: (§3) 96-well plates were coated with 0.5 μg/mL recombinant human IL-7Rα His₆-Fc +5 μg/mL BSA and then blocked. 0.5 nM of ICVD was mixed 1:1 with the test compounds of choice serially diluted in 1% BSA, then incubated for 30 minutes to allow binding before adding to the IL-7Rα coated plates. Following 2 hours incubation, bound ICVD was detected with 50 uL/well 1/20000 anti-FLAG-HRP Goat antibody (GeneTex, GTX21238), and the level of neutralisation of ICVD-IL-7Rα binding by the test compounds was determined.

Assay [12] deals with T2, ID-A40U.
T2 construct: V7R-2E9 with Q65K, K87R, S88A; produced in E. coli; also called A40U-F/H; not shown: Flag-His6 tag
Briefly: competition ELISA: ID-A40U premixed with serially diluted soluble IL-7R, then added to plate-coated human IL-7Rα-His6-Fc; bound ICVD detected. On the procedure: as §3

The target in assay [13] is T2, ID-A40U. Briefly: competition ELISA: ID-A40U premixed with serially diluted soluble receptor, then added to plate-coated human IL-7Rα; bound ICVD detected [left panel]. How it is done: as §3
For assay [14], the target named is T2, ID-A40U. The experiment in a line: competition ELISA: ID-A40U premixed with serially diluted soluble receptor, then added to plate-coated human IL-7Rα; bound ICVD detected [right panel]. How it is done:
as §3

Assay [15] addresses B5. The experiment in a line: competition ELISA: A59U premixed with serially diluted soluble IL-7R, then added to plate-coated human IL-7Rα-His6-Fc; bound ICVD detected [left panel (cross-reactivity A59U]. How it is done: as §3
For the assay “ID-A59U”, the target named is B4. The description is as above. On the procedure:
as §3

In the assay “ID-A62U” the target is B2. The experiment in a line: competition ELISA: A62U premixed with serially diluted soluble IL-7R, then added to plate-coated human IL-7Rα-His6-Fc; bound ICVD detected [right panel (cross-reactivity A62U]. How it is done:
as §3

Take B1: the “IL-7 induced pSTAT5 in hPBMCs EC50” value with human IL-7Rα [1] and with human IL-7Rα [2] was 2.86 nM throughout. The concentration giving a half-maximal response (EC50) is 600 pM in assay [3]; 368 pM in assay [4]; 818 pM in assay [5]; 370 to 670 pM in [6]; 818 pM in [7]; 320 pM in assay [8].
In the case of B2, the results for the concentration for a half-maximal effect (EC50) in assay [9] and in [10] were 400 pM and 740 pM, respectively. In the assay with cynomolgus monkey IL-7Rα [11], the binding result was “binds”.
Take B3: the “IC50 (read off the curve)” value was approximately 0.03 µg/mL with ID-A40U [12], approximately 0.02 µg/mL with ID-A40U [13] and approximately 0.02 µg/mL with ID-A40U [14].
As to B4, in the assay with cynomolgus monkey IL-7Rα [15], the binding result is “binds”.
For B5, the “IC50 (read off the curve)” value in the assay with ID-A40U [12] is approximately 0.01 µg/mL; in the assay with ID-A59U, approximately 0.03 µg/mL; with ID-A62U it was approximately 0.02 µg/mL.
